Results as given in patent US20210214434A1 (LABORATOIRE FRAN AIS DU FRACTIONNEMENT ET DES …, published 2021).

How the values were obtained:
[1] = target: T1, human FcRn receptor expressed by Jurkat cells (Jurkat-FcRn) (human, UniProt P55899 24-365; P61769 21-119); test: flow cytometry competition on Jurkat-FcRn cells, displacement of Rituxan-A488 (25 µg/ml), pH 6
T1 construct: whole, on cells; also called hFcRn
Description: The Jurkat-FcRn cells are seeded in a 96-well plate (V bottom) at a concentration of 2.10⁵ cells per well.
(§1) The cells are then washed by adding 100 μl of PBS at pH 6 and centrifuged at 1700 rpm for 3 minutes at 4° C. The supernatant is then removed and 300 μl of cold PBS is added at pH 6.

[2] = target: T2, human CD16aH receptor on transfected Jurkat cells (Jurkat-CD16aH) (human, UniProt P08637 17-254); test: flow cytometry competition on Jurkat-CD16aH cells, displacement of mAb 3G8-PE (0.5 µg/ml)
T2 construct: whole, on cells; also called hCD16aH; CD16a-F
Description: The Jurkat-CD16aH cells are seeded in a 96-well plate (V bottom) at a concentration of 2.10⁵ cells per well.
The cells are then washed by adding […] of PBS at pH 6 and centrifuged at 1700 rpm for 3 minutes at 4° C. The supernatant is then removed and 300 μl of cold PBS is added at pH 6.

[3] = target: T3, human CD32aH receptor on transfected HEK cells (HEK-CD32) (human, UniProt P12318 34-317); test: flow cytometry competition on HEK-CD32 cells, displacement of Rituxan-A488 (30 µg/ml)
T3 construct: whole, on cells; also called hCD32aH; FcγRIIa (CD32a)
T3 sequence (looked up): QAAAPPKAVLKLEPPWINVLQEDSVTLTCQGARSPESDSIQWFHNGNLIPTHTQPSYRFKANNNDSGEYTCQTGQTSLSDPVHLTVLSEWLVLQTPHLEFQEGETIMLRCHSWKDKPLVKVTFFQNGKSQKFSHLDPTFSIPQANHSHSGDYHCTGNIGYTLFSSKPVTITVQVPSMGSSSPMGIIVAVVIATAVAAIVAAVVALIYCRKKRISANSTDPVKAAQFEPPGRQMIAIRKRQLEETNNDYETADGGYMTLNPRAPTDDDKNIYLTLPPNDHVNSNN
Description: as §1

[4] = target: T4, human CD32aR receptor on transfected HEK cells (HEK-CD32) (human, UniProt P12318 34-317); test: as above
T4 construct: whole, on cells; also called hCD32aR; FcγRIIa (CD32a)
T4 sequence (looked up): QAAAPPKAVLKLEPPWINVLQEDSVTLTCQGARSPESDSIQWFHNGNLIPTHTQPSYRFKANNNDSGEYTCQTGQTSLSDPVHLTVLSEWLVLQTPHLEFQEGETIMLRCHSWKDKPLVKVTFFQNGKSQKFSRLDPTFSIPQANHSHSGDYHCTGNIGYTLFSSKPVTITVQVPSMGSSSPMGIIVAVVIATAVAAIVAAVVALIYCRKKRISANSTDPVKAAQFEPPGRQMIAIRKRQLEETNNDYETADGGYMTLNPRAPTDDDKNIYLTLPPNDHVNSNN
Description: as §1

[5] = target: T5, HisTag hCD16aV receptor (R&D System) (human, UniProt P08637 17-208); test: BLI (Octet), HisTag hCD16aV on anti-Penta-HIS biosensors, 1/1 model; SD 18.1
T5 construct: Captured on anti-Penta-HIS biosensors; also called human FcγRIIIa-V; FcγRIIIa (CD16a); not shown: HisTag
Description: (§2) The molecules were tested at concentrations of 1000, 500, 250, 125, 62.5, 31, […] and 0 nM in kinetic buffer.
(§3) The association and dissociation curves (first 5 s) are used to calculate the kinetic constants of association (kon) and dissociation (koff) using a 1/1 association model. KD (nM) is then calculated […].

[6] = target: T6, human CD64 receptor expressed by Jurkat cells (Jurkat-CD64) (human, UniProt P12314 16-374); test: cell-based or functional assay
[7] = target: T6, human CD64 receptor expressed by Jurkat …; test: flow cytometry competition on Jurkat-CD64 cells, displacement of Rituxan-A488 (25 µg/ml)
CD32b = target: T7, CD32b (UniProt P31994 43-310, limits assumed); test: competition assay, protocol and competitor for CD32b not described
T7 construct: probably on transfected cells as for CD32a
T7 sequence (looked up): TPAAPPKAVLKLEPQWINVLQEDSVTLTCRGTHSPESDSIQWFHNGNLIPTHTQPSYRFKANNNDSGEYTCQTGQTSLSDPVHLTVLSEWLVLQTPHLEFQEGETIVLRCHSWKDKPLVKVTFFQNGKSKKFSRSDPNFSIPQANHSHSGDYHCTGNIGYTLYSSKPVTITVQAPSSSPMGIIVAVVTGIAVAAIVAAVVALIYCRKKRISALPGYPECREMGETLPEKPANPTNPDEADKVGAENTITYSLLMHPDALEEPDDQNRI

[8] = target: T5, HisTag hCD16aV receptor (R&D System); test: BLI (Octet), HisTag hCD16aV on anti-Penta-HIS biosensors, 1/1 model; SD 7.7
Description: as §2, §3

[9] = target: T5, HisTag hCD16aV receptor (R&D System); test: BLI (Octet), HisTag hCD16aV on anti-Penta-HIS biosensors, 1/1 model; SD 10.7
Description: as §2, §3

[10] = target: complement proteins, in particular C1q (complement of the young rabbit serum used in the CDC test) (rabbit); test: cell-based or functional assay
[11] = target: biotinylated human FcRn receptor (hFcRn), immobilized on Streptavidin Biosensors (human, UniProt P55899 24-297; P61769 21-119, limits assumed, biotinylated (site not stated)); test: BLI (Octet), biotinylated hFcRn on streptavidin biosensors, pH 6, 1/1 model; SD 0
Description: The association and dissociation curves (first 10 s) are used to calculate the kinetic constants of association (kon) and dissociation (koff) using a 1/1 association model. KD (nM) is then calculated […].

[12] = target: T5, HisTag hCD16aV receptor (R&D System); test: BLI (Octet), HisTag hCD16aV on anti-Penta-HIS biosensors, 1/1 model; SD 14.1
[13] = target: T8, HisTag hCD32aH receptor (PX therapeutics) (human, UniProt P12318 34-217, limits assumed); test: BLI (Octet), HisTag hCD32aH on anti-Penta-HIS biosensors, 1/1 model; SD 29.7
T8 construct: Captured on anti-Penta-HIS biosensors; also called FcγRIIa (CD32a); not shown: HisTag
T8 sequence (looked up): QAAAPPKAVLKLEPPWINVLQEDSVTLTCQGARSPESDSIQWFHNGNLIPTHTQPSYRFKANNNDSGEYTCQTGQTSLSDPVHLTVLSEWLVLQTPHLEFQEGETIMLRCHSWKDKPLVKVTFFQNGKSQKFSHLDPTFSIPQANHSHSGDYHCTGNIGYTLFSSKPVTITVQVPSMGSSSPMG

T1 sequence (P55899 24-365, chain 1 of 2): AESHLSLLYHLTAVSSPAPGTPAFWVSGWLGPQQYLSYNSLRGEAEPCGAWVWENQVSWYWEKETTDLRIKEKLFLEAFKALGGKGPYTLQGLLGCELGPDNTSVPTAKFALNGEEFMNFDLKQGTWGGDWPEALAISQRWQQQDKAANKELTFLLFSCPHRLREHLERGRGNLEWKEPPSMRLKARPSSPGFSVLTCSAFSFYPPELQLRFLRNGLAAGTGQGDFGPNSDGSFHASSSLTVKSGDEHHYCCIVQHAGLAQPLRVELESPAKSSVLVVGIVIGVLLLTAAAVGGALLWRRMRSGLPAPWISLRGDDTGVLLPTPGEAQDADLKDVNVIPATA
T1 sequence (P61769 21-119, chain 2 of 2): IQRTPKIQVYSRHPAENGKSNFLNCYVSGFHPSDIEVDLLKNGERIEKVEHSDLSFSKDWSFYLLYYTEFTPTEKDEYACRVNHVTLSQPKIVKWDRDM
T6 sequence (P12314 16-374): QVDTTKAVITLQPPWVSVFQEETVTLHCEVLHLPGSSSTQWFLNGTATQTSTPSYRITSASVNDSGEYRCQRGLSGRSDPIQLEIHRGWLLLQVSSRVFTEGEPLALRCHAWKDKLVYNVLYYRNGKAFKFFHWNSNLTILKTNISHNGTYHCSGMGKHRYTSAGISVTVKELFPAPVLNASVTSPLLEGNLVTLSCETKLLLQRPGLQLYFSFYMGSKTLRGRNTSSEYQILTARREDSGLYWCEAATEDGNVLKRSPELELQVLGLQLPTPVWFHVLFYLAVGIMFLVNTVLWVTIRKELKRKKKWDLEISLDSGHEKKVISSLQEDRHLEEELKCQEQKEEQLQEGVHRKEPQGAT
T5 sequence (P08637 17-208 F176V limits assumed): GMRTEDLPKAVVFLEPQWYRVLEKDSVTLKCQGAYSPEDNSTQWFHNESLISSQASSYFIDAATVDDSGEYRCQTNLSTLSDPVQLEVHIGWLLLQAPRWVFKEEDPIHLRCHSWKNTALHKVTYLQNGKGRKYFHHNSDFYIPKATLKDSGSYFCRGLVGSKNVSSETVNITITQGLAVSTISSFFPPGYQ
Sequence of biotinylated human FcRn receptor (hFcRn), immobilized on Streptavidin Biosensors (P55899 24-297 limits assumed, chain 1 of 2): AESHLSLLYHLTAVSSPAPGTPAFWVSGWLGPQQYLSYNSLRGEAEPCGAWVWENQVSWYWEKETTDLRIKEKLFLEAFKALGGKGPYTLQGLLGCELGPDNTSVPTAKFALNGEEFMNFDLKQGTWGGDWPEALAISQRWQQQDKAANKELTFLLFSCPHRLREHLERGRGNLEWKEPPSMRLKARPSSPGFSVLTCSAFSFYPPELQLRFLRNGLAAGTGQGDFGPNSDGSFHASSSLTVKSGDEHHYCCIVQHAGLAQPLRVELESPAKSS
Sequence of biotinylated human FcRn receptor (hFcRn), immobilized on Streptavidin Biosensors (P61769 21-119 limits assumed, chain 2 of 2): as the sequence (P61769 21-119, chain 2 of 2) above
T2 sequence (P08637 17-254): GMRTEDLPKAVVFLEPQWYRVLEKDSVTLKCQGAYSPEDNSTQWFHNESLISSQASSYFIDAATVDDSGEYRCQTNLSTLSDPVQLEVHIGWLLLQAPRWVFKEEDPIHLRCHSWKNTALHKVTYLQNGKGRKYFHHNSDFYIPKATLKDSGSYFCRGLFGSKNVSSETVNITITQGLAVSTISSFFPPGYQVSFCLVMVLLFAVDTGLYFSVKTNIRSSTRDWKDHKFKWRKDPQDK

| Binder | IC50 [1] [nM] | IC50 [2] [nM] | IC50 [3] [nM] | IC50 [4] [nM] | Kd [5] [nM] | Inhibition of the secretion of IL-2 of the Jurkat cells transfected with CD64 (IC 25%, nM) [6] [nM] | Inhibition of the secretion of IL-2 of the Jurkat cells transfected with CD64 (IC 50%, nM) [6] [nM] | IC50 [7] [nM] | IC50 (CD32b) [nM] | Kd [8] [nM] | Kd [9] [nM] | IC50 (read off the curve) [10] [nM] | Kd [11] [nM] | Kd [12] [nM] | Kd [13] [nM] |
| --- | --- | --- | --- | --- | --- | --- | --- | --- | --- | --- | --- | --- | --- | --- | --- |
| A3A-184AY_CHO (K334N/P352S/A378V/V397M/N434Y), Fc variant produced in CHO cells (other, also called Fc A3A-184AY CHO) DKTHTCPPCPAPELLGGPSVFLFPPKPKDTLMISRTPEVTCVVVDVSHEDPEVKFNWYVDGVEVHNAKTKPREEQYNSTYRVVSVLTVLHQDWLNGKEYKCKVSNKALPAPIENTISKAKGQPREPQVYTLSPSRDELTKNQVSLTCLVKGFYPSDIVVEWESNGQPENNYKTTPPMLDSDGSFFLYSKLTVDKSRWQQGNVFSCSVMHEALHYHYTQKSLSLSPGK | 13 | 262 | 135 | 176 | 80.3 | 448 | 600 | 84 | 57 | – | – | – | – | – | – |
| Fc MST-HN fragment containing the mutations M252Y/S254T/T256E/H433K/N434F, produced in HEK-293 cells (other, UniProt P01857-1 104-330, looked up, name in EU numbering) DKTHTCPPCPAPELLGGPSVFLFPPKPKDTLYITREPEVTCVVVDVSHEDPEVKFNWYVDGVEVHNAKTKPREEQYNSTYRVVSVLTVLHQDWLNGKEYKCKVSNKALPAPIEKTISKAKGQPREPQVYTLPPSRDELTKNQVSLTCLVKGFYPSDIAVEWESNGQPENNYKTTPPVLDSDGSFFLYSKLTVDKSRWQQGNVFSCSVMHEALKFHYTQKSLSLSPGK | 14 | – | – | – | – | 1460 | < 1950 | 494 | – | – | – | – | – | – | – |
| A3A-184EY_CHO (Y296W/K334N/P352S/A378V/V397M/N434Y), Fc variant produced in CHO cells (other, probably a misprint; also called Fc A3A-184EY CHO) DKTHTCPPCPAPELLGGPSVFLFPPKPKDTLMISRTPEVTCVVVDVSHEDPEVKFNWYVDGVEVHNAKTKPREEQWNSTYRVVSVLTVLHQDWLNGKEYKCKVSNKALPAPIENTISKAKGQPREPQVYTLSPSRDELTKNQVSLTCLVKGFYPSDIVVEWESNGQPENNYKTTPPMLDSDGSFFLYSKLTVDKSRWQQGNVFSCSVMHEALHYHYTQKSLSLSPGK | 15 | – | 147 | 132 | – | 442 | 600 | 70 | 55 | 59.3 | – | – | – | – | – |
| A3A-184AY_TGg, Fc variant A3A-184AY produced in the transgenic goat (other) DKTHTCPPCPAPELLGGPSVFLFPPKPKDTLMISRTPEVTCVVVDVSHEDPEVKFNWYVDGVEVHNAKTKPREEQYNSTYRVVSVLTVLHQDWLNGKEYKCKVSNKALPAPIENTISKAKGQPREPQVYTLSPSRDELTKNQVSLTCLVKGFYPSDIVVEWESNGQPENNYKTTPPMLDSDGSFFLYSKLTVDKSRWQQGNVFSCSVMHEALHYHYTQKSLSLSPGK | 12 | – | 170 | – | – | – | – | 87 | 59 | – | 51.2 | – | – | – | – |
| Fc variant A3A-184AY (HEK) (K334N/P352S/A378V/V397M/N434Y), produced in HEK293 cells (other, also called Fc A3A 184AY (HEK); rFc A3A-184AY) DKTHTCPPCPAPELLGGPSVFLFPPKPKDTLMISRTPEVTCVVVDVSHEDPEVKFNWYVDGVEVHNAKTKPREEQYNSTYRVVSVLTVLHQDWLNGKEYKCKVSNKALPAPIENTISKAKGQPREPQVYTLSPSRDELTKNQVSLTCLVKGFYPSDIVVEWESNGQPENNYKTTPPMLDSDGSFFLYSKLTVDKSRWQQGNVFSCSVMHEALHYHYTQKSLSLSPGK | – | – | – | – | – | – | – | – | – | – | – | ~200 | 7.8 | 132 | 313 |
